No end group written: not given here.
B2: Mtw1-Nnf1 heterodimer (complex)
chain 1: MSAPTMRSTSILTEHLGYPPISLVDDIINAVNEIMYKCTAAMEKYLLSKSKIGEEDYGEEIKSGVAKLESLLENSVDKNFDKLELYVLRNVLRIPEEYLDANVFRLENQKDLVIVDENELKKSEEKLREKVNDVELAFKKNEMLLKRVTKVKRLLFTIRGFKQKLNELLKCKDDVQLQKILESLKPIDDTMTLLTDSLRKLYVDSESTSSTEEVEALLQRLKTNGKQNNKDFRTRYIDIRTNNVLRKLGLLGDKEDEKQSAKPDARTQAGDIVSIDIEEPQLDLLDDVL
chain 2: MVNSHGIRYIRLKQVFNRALDQSISKLQSWDKVSSCFPQYVNSKQGAINVANCQRQLTEFWTELCQREFKEIMEERNVEQKLNELDELILEAKERYTDRDQDEVNKGPAIDELSSKELVECHLYSQRMHAIHEIDERLAKVNEMNDQLAQELKDLETQVEVEKNEIGKMYDEYLGSHTDQPANVLLVQSLNDMVLELKENY

What was measured:
Ndc80 complex = Ndc80 complex (budding yeast, UniProt P40460;P33895;Q04477;P40014); experiment: SEC
Ame1–Okp1 complex = Ame1–Okp1 complex (budding yeast, UniProt P38313;P53298); experiment: ITC
Mtw1-Nnf1 heterodimer = target: B2; experiment: ITC

Chain of Ame1–Okp1 complex (P53298 whole entry, one chain of several): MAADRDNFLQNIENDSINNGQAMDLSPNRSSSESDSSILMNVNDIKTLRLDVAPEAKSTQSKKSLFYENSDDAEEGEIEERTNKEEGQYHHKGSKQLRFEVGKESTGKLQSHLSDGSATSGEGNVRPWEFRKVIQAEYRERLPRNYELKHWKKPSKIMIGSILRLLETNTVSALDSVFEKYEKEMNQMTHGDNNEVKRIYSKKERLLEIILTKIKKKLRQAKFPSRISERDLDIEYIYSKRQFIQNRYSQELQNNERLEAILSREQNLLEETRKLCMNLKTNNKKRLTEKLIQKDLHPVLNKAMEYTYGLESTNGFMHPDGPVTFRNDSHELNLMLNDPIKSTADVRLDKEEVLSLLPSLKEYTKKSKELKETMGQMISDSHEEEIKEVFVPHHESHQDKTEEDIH
Chain of Ndc80 complex (P40460 whole entry, chain 1 of 4): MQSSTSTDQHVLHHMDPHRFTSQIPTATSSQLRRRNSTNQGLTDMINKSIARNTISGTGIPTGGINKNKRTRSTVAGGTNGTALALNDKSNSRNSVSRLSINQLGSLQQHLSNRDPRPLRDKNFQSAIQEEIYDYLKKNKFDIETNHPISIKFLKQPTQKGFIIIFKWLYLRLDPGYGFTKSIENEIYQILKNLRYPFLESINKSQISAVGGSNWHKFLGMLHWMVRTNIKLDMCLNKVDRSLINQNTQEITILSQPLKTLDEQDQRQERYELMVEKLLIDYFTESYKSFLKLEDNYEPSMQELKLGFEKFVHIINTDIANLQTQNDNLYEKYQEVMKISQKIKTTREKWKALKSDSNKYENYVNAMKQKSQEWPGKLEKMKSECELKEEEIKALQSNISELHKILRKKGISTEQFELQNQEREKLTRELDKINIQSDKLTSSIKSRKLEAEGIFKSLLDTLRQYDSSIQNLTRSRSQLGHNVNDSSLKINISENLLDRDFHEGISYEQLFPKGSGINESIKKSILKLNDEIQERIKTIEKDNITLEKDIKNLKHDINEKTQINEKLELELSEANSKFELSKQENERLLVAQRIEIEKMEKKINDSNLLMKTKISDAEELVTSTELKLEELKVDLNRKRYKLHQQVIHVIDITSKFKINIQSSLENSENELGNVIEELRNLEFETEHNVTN
Chain of Ndc80 complex (P33895 whole entry, chain 2 of 4): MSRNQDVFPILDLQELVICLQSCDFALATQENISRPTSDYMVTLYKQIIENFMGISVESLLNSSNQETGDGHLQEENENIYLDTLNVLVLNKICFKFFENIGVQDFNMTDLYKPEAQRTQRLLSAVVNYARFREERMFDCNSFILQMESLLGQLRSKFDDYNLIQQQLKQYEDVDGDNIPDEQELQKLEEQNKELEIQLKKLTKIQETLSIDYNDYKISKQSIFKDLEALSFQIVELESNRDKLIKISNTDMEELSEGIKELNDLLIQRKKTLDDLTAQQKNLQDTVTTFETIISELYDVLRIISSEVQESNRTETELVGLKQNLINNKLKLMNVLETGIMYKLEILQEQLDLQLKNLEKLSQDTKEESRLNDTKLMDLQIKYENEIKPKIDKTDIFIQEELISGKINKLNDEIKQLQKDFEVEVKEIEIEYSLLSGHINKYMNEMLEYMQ
Chain of Ndc80 complex (Q04477 whole entry, chain 3 of 4): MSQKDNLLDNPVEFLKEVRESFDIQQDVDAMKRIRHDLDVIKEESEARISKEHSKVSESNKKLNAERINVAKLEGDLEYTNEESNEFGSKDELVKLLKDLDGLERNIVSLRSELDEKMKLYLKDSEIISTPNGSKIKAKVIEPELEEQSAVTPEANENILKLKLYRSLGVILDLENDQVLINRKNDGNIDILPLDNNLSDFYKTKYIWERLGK
Chain of Ndc80 complex (P40014 whole entry, chain 4 of 4): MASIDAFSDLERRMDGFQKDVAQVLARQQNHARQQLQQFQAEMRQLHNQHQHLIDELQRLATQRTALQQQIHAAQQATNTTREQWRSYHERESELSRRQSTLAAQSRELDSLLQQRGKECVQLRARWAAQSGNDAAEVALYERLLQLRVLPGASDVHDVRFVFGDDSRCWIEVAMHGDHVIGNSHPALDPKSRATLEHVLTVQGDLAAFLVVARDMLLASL

B1: Mtw1 complex (recombinant four-protein complex with a deletion of the N-terminal 172 residues of Dsn1) (complex)
chain 1: MSAPTMRSTSILTEHLGYPPISLVDDIINAVNEIMYKCTAAMEKYLLSKSKIGEEDYGEEIKSGVAKLESLLENSVDKNFDKLELYVLRNVLRIPEEYLDANVFRLENQKDLVIVDENELKKSEEKLREKVNDVELAFKKNEMLLKRVTKVKRLLFTIRGFKQKLNELLKCKDDVQLQKILESLKPIDDTMTLLTDSLRKLYVDSESTSSTEEVEALLQRLKTNGKQNNKDFRTRYIDIRTNNVLRKLGLLGDKEDEKQSAKPDARTQAGDIVSIDIEEPQLDLLDDVL
chain 2: MVNSHGIRYIRLKQVFNRALDQSISKLQSWDKVSSCFPQYVNSKQGAINVANCQRQLTEFWTELCQREFKEIMEERNVEQKLNELDELILEAKERYTDRDQDEVNKGPAIDELSSKELVECHLYSQRMHAIHEIDERLAKVNEMNDQLAQELKDLETQVEVEKNEIGKMYDEYLGSHTDQPANVLLVQSLNDMVLELKENY
chain 3: MSQGQSKKLDVTVEQLRSIYHQFHDILEEKTDLHLPKKEYDDDAVRREVQIQLQEFLLSAMTMASKSLEVVNADTVGKTVKQLIMESQEKYMEPFDLDLNEQVRKMYQEWEDETVKVAQLRQTGPAKINEVYNNSKDEYLAQLDGRIGVLQARMMQQQSADHDDSTDDADDHINWEHIKQDYVASLNELYQTQQDLPKVRYNVEKVKRLMDFLEED
chain 4: HSIMPNSSLQPFYSQPTAAGGPDMTTPQNISSSQQLLPAPQLFPYGSFHQQQLQQPHYIQRTRERKKSIGSQRGRRLSMLASQANGGSTIISPHKDIPEEDFYTVVGNASFGKNLQIRQLFNWCLMRSLHKLELKAKNQEEEGELEHLTKKSKLESTKAETDYVDPKRLAMVIIKEFVDDLKKDHIAIDWEDEEKYEDEDEEKILDNTENYDDTELRQLFQENDDDDDDDDEVDYSEIQRSRRKFSERRKALPKEPKKLLPNSKNVENTKNLSILTSKVNAIKNEVKEWAVTLDTSRPDLEWQELTSFSSQPLEPLSDTEEPDLAIADVETKLETKVDELRYQSHILNSHSLALNEITNSKVNKLNIETMRKISSETDDDHSQVINPQQLLKGLSLSFSKKLDL
binding result (Ndc80 complex): binds

B2
Kd (Ame1–Okp1 complex): 1600 nM | stoichiometry N (Ame1–Okp1 complex): 1

{GST}-MDRDTKLAFRLRGSHSRRTDDIDDDVIVFK (domain or fragment) [GST-Ame1^1-30]
Kd (Mtw1-Nnf1 heterodimer): 1500 nM
